These are literature values, as cited in PMC9157009, “Protein proximity networks and functional evaluation of the casein kinase 1 gamma family reveal unique roles for CK1γ3 in WNT signaling” (The Journal of Biological Chemistry, 2022).

This data set has as its system β-catenin-dependent transcription. Particulars: siRNA screen, BAR firefly luciferase reporter, ref Biechele et al. For orientation: In a reporter assay the amount or activity of a reporter protein is the signal.

B1: MAGI1 (protein, UniProt Q96QZ7 1-1491, looked up)
Membrane-associated guanylate …: MSKVIQKKNHWTSRVHECTVKRGPQGELGVTVLGGAEHGEFPYVGAVAAVEAAGLPGGGEGPRLGEGELLLEVQGVRVSGLPRYDVLGVIDSCKEAVTFKAVRQGGRLNKDLRHFLNQRFQKGSPDHELQQTIRDNLYRHAVPCTTRSPREGEVPGVDYNFLTVKEFLDLEQSGTLLEVGTYEGNYYGTPKPPSQPVSGKVITTDALHSLQSGSKQSTPKRTKSYNDMQNAGIVHAENEEEDDVPEMNSSFTADSGEQEEHTLQETALPPVNSSIIAAPITDPSQKFPQYLPLSAEDNLGPLPENWEMAYTENGEVYFIDHNTKTTSWLDPRCLNKQQKPLEECEDDEGVHTEELDSELELPAGWEKIEDPVYGIYYVDHINRKTQYENPVLEAKRKKQLEQQQQQQQQQQQQQQQQQQQQTEEWTEDHSALVPPVIPNHPPSNPEPAREVPLQGKPFFTRNPSELKGKFIHTKLRKSSRGFGFTVVGGDEPDEFLQIKSLVLDGPAALDGKMETGDVIVSVNDTCVLGHTHAQVVKIFQSIPIGASVDLELCRGYPLPFDPDDPNTSLVTSVAILDKEPIIVNGQETYDSPASHSSKTGKVNGMKDARPSSPADVASNSSHGYPNDTVSLASSIATQPELITVHIVKGPMGFGFTIADSPGGGGQRVKQIVDSPRCRGLKEGDLIVEVNKKNVQALTHNQVVDMLVECPKGSEVTLLVQRGGLPVPKKSPKSQPLERKDSQNSSQHSVSSHRSLHTASPSHSTQVLPEFPPAEAQAPDQTDSSGQKKPDPFKIWAQSRSMYENRPMSPSPASGLSKGEREREINSTNFGECPIPDYQEQDIFLWRKETGFGFRILGGNEPGEPIYIGHIVPLGAADTDGRLRSGDELICVDGTPVIGKSHQLVVQLMQQAAKQGHVNLTVRRKVVFAVPKTENEVPSPASSHHSSNQPASLTEEKRTPQGSQNSLNTVSSGSGSTSGIGSGGGGGSGVVSTVVQPYDVEIRRGENEGFGFVIVSSVSRPEAGTTFAGNACVAMPHKIGRIIEGSPADRCGKLKVGDRILAVNGCSITNKSHSDIVNLIKEAGNTVTLRIIPGDESSNATLLTNAEKIATITTTHTPSQQGTQETRNTTKPKQESQFEFKAPQATQEQDFYTVELERGAKGFGFSLRGGREYNMDLYVLRLAEDGPAERCGKMRIGDEILEINGETTKNMKHSRAIELIKNGGRRVRLFLKRGDGSVPEYDPSSDRHGPATGPQGVPEVRAGPDRRQHPSLESSYPPDLHKSSPHGEKRAHARDPKGSREYSRQPNEHHTWNGTSRKPDSGACRPKDRAPEGRRDAQAERAAAANGPKRRSPEKRREGTRSADNTLERREKHEKRRDVSPERRRERSPTRRRDGSPSRRRRSLERLLEQRRSPERRRGGSPERRAKSTDRRRARSPERRRERSLDKRNREDRASHREREEANLKQDAGRSSRHPPEQRRRPYKECSTDLSI
On to B1, for which the “Fold over control siRNA” value (fold over control siRNA) was 3.957. For the same molecule, the “Average BAR firefly Luciferase (Raw)” value (raw signal per siRNA target) was 104670.
